Data: patent publication US20170355763A1 (published 2017)

Target: T1, purified, recombinant human IL-31 fused at the C-terminal with a peptide consisting of the sequence EYMPME … (human, UniProt Q6EBC2 27-164)
T1 construct: also called human IL-31-CEE; rIL31
T1 sequence: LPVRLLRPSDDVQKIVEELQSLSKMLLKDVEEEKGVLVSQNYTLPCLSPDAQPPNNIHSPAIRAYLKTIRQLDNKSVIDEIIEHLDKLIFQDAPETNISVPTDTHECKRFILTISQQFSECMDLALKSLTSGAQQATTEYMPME
Test: capture ELISA: mAb of supernatant captured on anti-mouse IgG Fc, biotinylated IL-31-CEE
Experimental: These new supernatants were tested using the cell-based neutralization assay (serial 3-fold dilutions starting with neat supernatant and proceeding to a final 1:243 dilution) as well as a “capture” style ELISA assay similar to that used in the development of the rat anti-murine IL-31 mAbs with the following differences; 1) sheep anti-mouse IgG, Fc specific antibody (Jackson Immunoresearch) (1 ug/mL) as plate coating antibody, 2) plates blocked once with PBS-Tween+1% BSA for 1 hr, 3) a single titration of each supernatant added to wells (serial 3-fold dilutions starting with neat supernatant and proceeding to a final 1:2187 dilution), and 4) addition of biotinylated IL-31-CEE (3:1 molar ratio of biotin:protein), 200 ng/mL. This assay was felt to be more pertinent than the binding of antibody to plate bound IL-31-CEE as it assessed the ability of antibody to bind to IL-31-CEE in solution, a property essential to a good antibody for sandwich style ELISAs. It was in fact observed that a number of the master wells supernatants containing antibody that bound well to plate bound IL-31-CEE poorly recognized this molecule in solution.
To reduce the number of hybridomas going into further subcloning, two new assays were performed with exhausted supernatant from each of the selected first round clones. […]

B1: mouse anti-human IL-31 mAb 294.144.3.5 (antibody, mouse IgG1, V domains shown)
VL: ENVLTQSPAIMSASPGERVTMTCSASSSVSYMHWYQQKSSNSPKLWIYDTTKLASGVPGRFSGSGSGNSYSLTISSMEAEDVATYFCFQGSEHPLTFGGGTTLEI
VH: QVQLQQSGPELMKPGASVKISCKATGYTFSTYWIEWIKQRPGHGLEWIGEILPGRGTTNYNAKFQGKATFTAETSSNTAYMQLSSLTSEDSAVYYCTTESKLGDDDYWQGTTLTVSS
notes: Mouse IgG1; also called ATCC PTA-6873
- EC50: 0.0134 µg/mL
